This passage reports Km and Vmax results from patent US9890400B2, “Method of production of 2,4-dihydroxybutyric acid” (ADISSEO FRANCE S.A.S., priority 2012, dated 2018).

The data set has as its system CC(C)(COP(=O)(O)OP(=O)(O)OC[C@H]1O[C@@H](n2cnc3c(N)ncnc32)[C@H](O)[C@@H]1OP(=O)(O)O)[C@@H](O)C(=O)NCCC(=O)NCCSC(=O)CCC(=O)O. Kind of data set: Malyl-CoA reductase activity, reductive sense (Assay 1). It counts as biochemical, Porphyromonas gingivalis W83. The note with it: other: reductive sense, succinyl-CoA added directly, NADPH, pH 7.5, 37° C. As to the method:
NCBI references of the utilized mcr and sucD protein sequences, and the references for the corresponding natural and synthetic DNA sequences are listed in Table 2.
Expression and purification of Pg-SucD was carried out as described in Example 1 using plasmid pET28-Pgi-sucD.
Malyl-CoA reductase activity was assayed in the reductive and in the oxidative sense of the reaction employing Assay 1 or Assay 2, respectively.
Assay 1 (Reaction Scheme): glyoxylate+acetyl-CoA→malyl-CoA+acetate Malyl-CoA lyase: (L)-Malyl-CoA+NADPH→(L)-Malate semialdehyde+Coenzyme A+NADP Malyl-CoA reductase: Assay 2 (Reaction Scheme): (L)-Malate semialdehyde+Coenzyme A+NADP→(L)-Malyl-CoA+NADPH The reaction mixture according to Assay 1 contained 50 mM MOPS/KOH (pH 7.5), […], and appropriate amounts of purified malyl-CoA reductase or cell extract. Reactions were started by adding glyoxylate. Enzymatic assays were carried out at 37° C. in 96-well flat bottomed microtiter plates in a final volume of 250 μL. The reactions were followed by the characteristic absorption of NADPH at 340 nm (εNADPH=6.22 mM^−1 cm^−1) in a microplate reader (BioRad 680XR).

As to “Porphyromonas gingivalis succinyl-CoA reductase (Pg-SucD), wild type, SEQ ID No. 10 (Porphyromonas gingivalis W83)”, the Km is 1000 µM and the Vmax came out at 1 µmol/min/mg.
